# Measured values taken from patent US12404318B2, “Combination HBV therapy” (priority 2018, dated 2025).
# B1: HBC24: human antibody against HBsAg, VH SEQ ID NO:75, VL SEQ ID NO:76; murinized heavy and light chains SEQ ID NOs:103 and 104 (antibody, V domains shown)
# VH: EVQLLESGGGLVQPGGSLRLSCAASGSTFTKYAMSWVRQAPGKGLEWVASISGSVPGFGIDTYYADSVKGRFTISRDTSKNTLYLQMNSLRAEDTALYYCAKDVGVIGSYYYYAMDVWGQGTAVTVSS
# VL: EIVLTQSPGTLSLSPGERATLSCRASQGLSSSYLAWYQQKPGQAPRLLIYSASTRATGIPDRFSGSGSGTDFTLTISRLEPEDFAVYYCQQYAYSPRWTFGQGTKVEIK
# modifications: Synthetic sequence HBC24 VH; Synthetic sequence HBC24 VL
# B2: HBC34v7 (antibody, V domains shown)
# VH: ELQLVESGGGWVQPGGSQRLSCAASGRIFRSFYMSWVRQAPGKGLEWVATINQDGSEKLYVDSVKGRFTISRDNAKNSLFLQMNNLRVEDTAVYYCAAWSGNSGGMDVWGQGTTVSVSS
# VL: SYELTQPPSVSVSPGQTVSIPCSGDKLGNKNVCWFQHKPGQSPVLVIYEVKYRPSGIPERFSGSNSGNTATLTISGTQAMDEAAYFCQTFDSTTVVFGGGTRLTVL
# modifications: Synthetic sequence HBC34 VH; Synthetic sequence HBC34v7 VL
# Columns and labels:
# [1] = test system: HBV (rAAV8-1.3HBV strain ayw, D type); assay: Combination therapy study in AAV-HBV mice (Example 1): serum HBsAg and HBV DNA; type: in vivo, C57BL/6 mice
# Protocol: The mice (C57BL/6 strain) were inoculated with the following amount of rAAV8-1.3HBV strain ayw, D type: 1.0×10^11 viral genomes per mouse in 200 μl volume via tail veins injection. Four weeks after viral inoculation, treatment with test compounds was initiated.
# Entecavir was administered orally once per day.
# HBV genotype C = assay: Serum clearance of HBsAg and viral entry inhibition in PXB-Mouse model (Example 3); type: in vivo, uPA/SCID mice with transplanted primary human hepatocytes; conditions: HBC34 antibody (HBC34-v35-mu-IgG2a) 15 mg/kg, not in combination with the siRNA
# Excerpt: An immune-deficient mouse having transplanted human hepatocytes was used to test the effectiveness of a combination therapy with an HBV-specific siRNA and an anti-HBV antibody in clearing HBsAg.
# Primary human hepatocytes were transplanted into SCID mice for which mouse hepatocytes had previously been destroyed enzamatically. The mice were T- and B-cell deficient. […] Mice were inoculated via tail vein injection with HBV genotype C at 1.0×10^7 viral genomes per mouse. Treatments began eight weeks post-infection.
# HBV-infected mice (n=4 per treatment group) were administered one of seven different treatments: (1) PBS only; (2-4) an anti-HBV antibody (a fully murinized HBC34v35 antibody, HBC34-v35-mu-IgG2a), at one of three doses, administered intraperitoneally twice per week during weeks two and three; or (5-7) an HBV-specific siRNA (HBV02, having an antisense strand of SEQ ID NO:8; see description in Example 1) administered subcutaneously once at the beginning of the study, and the fully murinized HBC34v35, at one of three antibody doses, administered intraperitoneally twice per week during weeks two and three (see Table 7). Mice were sacrificed at week 6.
# Serum samples were collected periodically throughout the study, and viral load, HBsAg, and free HBC34 antibody were measured.
# HBsAg = HBsAg (Hepatitis B virus genotype D subtype ayw, UniProt P03138); assay: Activity measured diagnostically with an immunoassay; type: binding, HBV
# antigenic loop of HBsAg = assay: Binding to HBsAg; set-up: species or system HBV
# HBV = HBV neutralization; type: cell-based; conditions: human antibodies against HBsAg
# Protocol: To study and quantitate virus infectivity (or “neutralization”) in the laboratory the person skilled in the art knows various standard “neutralization assays.” For a neutralization assay, animal viruses are typically propagated in cells and/or cell lines. In the context of the present disclosure, for a neutralization assay, cultured cells may be incubated with a fixed amount of HBV in the presence (or absence) of the antibody to be tested. As a readout, the levels of hepatitis B surface antigen (HBsAg) or hepatitis B e antigen (HBeAg) secreted into the cell culture supernatant may be used and/or HBcAg staining may be assessed. In one embodiment of a HBV neutralization assay, cultured cells, for example HepaRG cells, in particular differentiated HepaRG cells, are incubated with a fixed amount of HBV in the presence or absence of the antibody to be tested, for example for 16 hours at 37° C. The incubation may be performed in a medium (e.g., supplemented with 4% PEG 8000). After incubation, cells may be washed and further cultivated. To measure virus infectivity, the levels of hepatitis B surface antigen (HBsAg) and hepatitis B e antigen (HBeAg) secreted into the culture supernatant, e.g., from day 7 to day 11 post-infection, may be determined by enzyme-linked immunosorbent assay (ELISA). Additionally, HBcAg staining may be assessed in an immunofluorescence assay.
molecule,measurement,setting,value
"HBC34: human monoclonal antibody against HBsAg antigenic loop; VH SEQ ID NO:53, VL SEQ ID NO:55",Reduction of serum HBV DNA (viral load) relative to the saline control,"[1]; AAV/HBV-infected C57BL/6 mice, HBV02 3 mg/kg, HBC34 antibody (HBC34-v7-mu-IgG2a) 15 mg/kg, alone or combined, FIGS. 2A, 2B",no effect
same,Reduction of serum HBsAg relative to the saline control,"[1]; AAV/HBV-infected C57BL/6 mice, HBV02 3 mg/kg, HBC34 antibody (HBC34-v7-mu-IgG2a) 15 mg/kg, alone or combined, FIGS. 3A, 3B",< 1 log10
same,"Serum HBV DNA concentration, antibody monotherapy",HBV genotype C; FIG. 9,lower
same,"Serum HBsAg concentration, antibody monotherapy",HBV genotype C; FIG. 10,lower
same,Activity as measured diagnostically with an immunoassay,HBsAg,5000 IU/mg
same,Affinity of binding to the antigenic loop of HBsAg,antigenic loop of HBsAg,high affinity (in the pM range)
same,HBV genotypes and mutants recognized,antigenic loop of HBsAg,all 10 HBV genotypes and 18 mutants
same,Stoichiometry of binding to spherical SVPs,antigenic loop of HBsAg; spherical subviral particles,low stoichiometry
same,Neutralizing activity,HBV,high neutralizing activity
B1,Neutralizing activity,HBV,high neutralizing activity
B2,HBsAg levels from mouse serum (average log HBsAg content),"[1]; Treatment 2: HBC34v7 15 mg/kg, day 0 post-dose",4.64 log IU/ml
same,HBsAg levels from mouse serum (average log HBsAg content),"[1]; Treatment 2: HBC34v7 15 mg/kg, day 3 post-dose",4.58 log IU/ml
same,HBsAg levels from mouse serum (average log HBsAg content),"[1]; Treatment 2: HBC34v7 15 mg/kg, day 7 post-dose",4.46 log IU/ml
same,HBsAg levels from mouse serum (average log HBsAg content),"[1]; Treatment 2: HBC34v7 15 mg/kg, day 10 post-dose",4.42 log IU/ml
same,HBsAg levels from mouse serum (average log HBsAg content),"[1]; Treatment 2: HBC34v7 15 mg/kg, day 14 post-dose",4.34 log IU/ml
same,HBsAg levels from mouse serum (average log HBsAg content),"[1]; Treatment 2: HBC34v7 15 mg/kg, day 17 post-dose",3.87 log IU/ml
same,HBsAg levels from mouse serum (average log HBsAg content),"[1]; Treatment 2: HBC34v7 15 mg/kg, day 21 post-dose",4.09 log IU/ml
same,HBsAg levels from mouse serum (average log HBsAg content),"[1]; Treatment 2: HBC34v7 15 mg/kg, day 24 post-dose",3.65 log IU/ml
same,HBsAg levels from mouse serum (average log HBsAg content),"[1]; Treatment 2: HBC34v7 15 mg/kg, day 28 post-dose",4.15 log IU/ml
same,HBsAg levels from mouse serum (average log HBsAg content),"[1]; Treatment 2: HBC34v7 15 mg/kg, day 31 post-dose",4.29 log IU/ml
same,HBsAg levels from mouse serum (average log HBsAg content),"[1]; Treatment 2: HBC34v7 15 mg/kg, day 35 post-dose",4.25 log IU/ml
same,HBsAg levels from mouse serum (average log HBsAg content),"[1]; Treatment 2: HBC34v7 15 mg/kg, day 38 post-dose",4.26 log IU/ml
same,HBsAg levels from mouse serum (average log HBsAg content),"[1]; Treatment 2: HBC34v7 15 mg/kg, day 42 post-dose",4.28 log IU/ml
same,HBsAg levels from mouse serum (average log HBsAg content),"[1]; Treatment 3: HBC34v7 5 mg/kg, day 0 post-dose",4.49 log IU/ml
same,HBsAg levels from mouse serum (average log HBsAg content),"[1]; Treatment 3: HBC34v7 5 mg/kg, day 3 post-dose",4.37 log IU/ml
same,HBsAg levels from mouse serum (average log HBsAg content),"[1]; Treatment 3: HBC34v7 5 mg/kg, day 7 post-dose",4.44 log IU/ml
same,HBsAg levels from mouse serum (average log HBsAg content),"[1]; Treatment 3: HBC34v7 5 mg/kg, day 10 post-dose",4.35 log IU/ml
same,HBsAg levels from mouse serum (average log HBsAg content),"[1]; Treatment 3: HBC34v7 5 mg/kg, day 14 post-dose",4.30 log IU/ml
same,HBsAg levels from mouse serum (average log HBsAg content),"[1]; Treatment 3: HBC34v7 5 mg/kg, day 17 post-dose",4.28 log IU/ml
same,HBsAg levels from mouse serum (average log HBsAg content),"[1]; Treatment 3: HBC34v7 5 mg/kg, day 21 post-dose",4.32 log IU/ml
same,HBsAg levels from mouse serum (average log HBsAg content),"[1]; Treatment 3: HBC34v7 5 mg/kg, day 24 post-dose",4.26 log IU/ml
same,HBsAg levels from mouse serum (average log HBsAg content),"[1]; Treatment 3: HBC34v7 5 mg/kg, day 28 post-dose",4.23 log IU/ml
same,HBsAg levels from mouse serum (average log HBsAg content),"[1]; Treatment 3: HBC34v7 5 mg/kg, day 31 post-dose",3.99 log IU/ml
same,HBsAg levels from mouse serum (average log HBsAg content),"[1]; Treatment 3: HBC34v7 5 mg/kg, day 35 post-dose",3.99 log IU/ml
same,HBsAg levels from mouse serum (average log HBsAg content),"[1]; Treatment 3: HBC34v7 5 mg/kg, day 38 post-dose",4.08 log IU/ml
same,HBsAg levels from mouse serum (average log HBsAg content),"[1]; Treatment 3: HBC34v7 5 mg/kg, day 42 post-dose",4.05 log IU/ml
same,HBsAg levels from mouse serum (average log HBsAg content),"[1]; Treatment 4: HBC34v7 1 mg/kg, day 0 post-dose",4.50 log IU/ml
same,HBsAg levels from mouse serum (average log HBsAg content),"[1]; Treatment 4: HBC34v7 1 mg/kg, day 3 post-dose",4.46 log IU/ml
same,HBsAg levels from mouse serum (average log HBsAg content),"[1]; Treatment 4: HBC34v7 1 mg/kg, day 7 post-dose",4.42 log IU/ml
same,HBsAg levels from mouse serum (average log HBsAg content),"[1]; Treatment 4: HBC34v7 1 mg/kg, day 10 post-dose",4.37 log IU/ml
same,HBsAg levels from mouse serum (average log HBsAg content),"[1]; Treatment 4: HBC34v7 1 mg/kg, day 14 post-dose",4.40 log IU/ml
same,HBsAg levels from mouse serum (average log HBsAg content),"[1]; Treatment 4: HBC34v7 1 mg/kg, day 17 post-dose",4.31 log IU/ml
same,HBsAg levels from mouse serum (average log HBsAg content),"[1]; Treatment 4: HBC34v7 1 mg/kg, day 21 post-dose",4.31 log IU/ml
same,HBsAg levels from mouse serum (average log HBsAg content),"[1]; Treatment 4: HBC34v7 1 mg/kg, day 24 post-dose",4.38 log IU/ml
same,HBsAg levels from mouse serum (average log HBsAg content),"[1]; Treatment 4: HBC34v7 1 mg/kg, day 28 post-dose",4.29 log IU/ml
same,HBsAg levels from mouse serum (average log HBsAg content),"[1]; Treatment 4: HBC34v7 1 mg/kg, day 31 post-dose",4.15 log IU/ml
same,HBsAg levels from mouse serum (average log HBsAg content),"[1]; Treatment 4: HBC34v7 1 mg/kg, day 35 post-dose",4.16 log IU/ml
same,HBsAg levels from mouse serum (average log HBsAg content),"[1]; Treatment 4: HBC34v7 1 mg/kg, day 38 post-dose",4.09 log IU/ml
same,HBsAg levels from mouse serum (average log HBsAg content),"[1]; Treatment 4: HBC34v7 1 mg/kg, day 42 post-dose",4.08 log IU/ml
same,HBsAg levels from mouse serum (average log HBsAg content),"[1]; Treatment 5: HBC34v7 0.1 mg/kg, day 0 post-dose",4.51 log IU/ml
same,HBsAg levels from mouse serum (average log HBsAg content),"[1]; Treatment 5: HBC34v7 0.1 mg/kg, day 3 post-dose",4.36 log IU/ml
same,HBsAg levels from mouse serum (average log HBsAg content),"[1]; Treatment 5: HBC34v7 0.1 mg/kg, day 7 post-dose",4.31 log IU/ml
same,HBsAg levels from mouse serum (average log HBsAg content),"[1]; Treatment 5: HBC34v7 0.1 mg/kg, day 10 post-dose",4.17 log IU/ml
same,HBsAg levels from mouse serum (average log HBsAg content),"[1]; Treatment 5: HBC34v7 0.1 mg/kg, day 14 post-dose",4.26 log IU/ml
same,HBsAg levels from mouse serum (average log HBsAg content),"[1]; Treatment 5: HBC34v7 0.1 mg/kg, day 17 post-dose",4.17 log IU/ml
same,HBsAg levels from mouse serum (average log HBsAg content),"[1]; Treatment 5: HBC34v7 0.1 mg/kg, day 21 post-dose",4.23 log IU/ml
same,HBsAg levels from mouse serum (average log HBsAg content),"[1]; Treatment 5: HBC34v7 0.1 mg/kg, day 24 post-dose",4.25 log IU/ml
same,HBsAg levels from mouse serum (average log HBsAg content),"[1]; Treatment 5: HBC34v7 0.1 mg/kg, day 28 post-dose",4.20 log IU/ml
same,HBsAg levels from mouse serum (average log HBsAg content),"[1]; Treatment 5: HBC34v7 0.1 mg/kg, day 31 post-dose",4.26 log IU/ml
same,HBsAg levels from mouse serum (average log HBsAg content),"[1]; Treatment 5: HBC34v7 0.1 mg/kg, day 35 post-dose",4.38 log IU/ml
same,HBsAg levels from mouse serum (average log HBsAg content),"[1]; Treatment 5: HBC34v7 0.1 mg/kg, day 38 post-dose",4.38 log IU/ml
same,HBsAg levels from mouse serum (average log HBsAg content),"[1]; Treatment 5: HBC34v7 0.1 mg/kg, day 42 post-dose",4.30 log IU/ml
